Target: T1, ACM335-FKBP hybrid protein (from plasmid pCm-ACM335-FKBP) (Bordetella pertussis, UniProt P62942 2-108)
T1 construct: also called ACM-FKBP
Experiment: HSACH in vivo complementation in E. coli DHM1 (data not shown)

B1: 3K1K-CaM fusion (VHH)
VHH: QVQLVESGGALVQPGGSLRLSCAASGFPVNRYSMRWYRQAPGKEREWVAGMSSAGDRSSYEDSVKGRFTISRDDARNTVYLQMNSLKPEDTAVYYCNVNVGFEYWGQGTQVTVSS
**Q.** Does B1 bind?
**A.** no binding
